Laboratory results from patent US5472872.

Columns and labels:
[1] = target: T1, R.CviJI restriction endonuclease (Chlorella virus IL-3A) (UniProt P52283); test: cleavage_in_vitro
T1 sequence: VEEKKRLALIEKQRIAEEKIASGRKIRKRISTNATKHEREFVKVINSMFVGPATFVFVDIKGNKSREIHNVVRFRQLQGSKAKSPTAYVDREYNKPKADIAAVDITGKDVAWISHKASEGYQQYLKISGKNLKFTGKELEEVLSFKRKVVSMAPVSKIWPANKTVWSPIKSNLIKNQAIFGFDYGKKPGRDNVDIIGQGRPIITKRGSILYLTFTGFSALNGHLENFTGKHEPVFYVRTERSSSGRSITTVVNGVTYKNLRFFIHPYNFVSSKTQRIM

[2] = test system: M.CviJI methyltransferase (Chlorella virus IL-3A); test: cell_activity; conditions: p710 in E. coli; SacI 90%, HindIII 25%; improved-translation plasmids appeared 100% resistant
[3] = CviJI*, 5 uncleaved, CviJI** 1 of 76 (Table 5)
[4] = CviJI*, 3 uncleaved, CviJI** 0 of 76 (Table 5)

AGCA (double strand) [AGCA site in pUC19 (relaxed R2 PuGCPu)]
activity (cleaved junctions of 200) [1, 3]: 13

AGCC (double strand) [AGCC site in pUC19 (normal PuGCPy)]
activity (cleaved junctions of 200) ([1]; CviJI* (Mg, ATP, DTT), 1 uncleaved, CviJI** 13 of 76 (Table 5)): 23

AGCG (double strand) [AGCG site in pUC19 (relaxed R2 PuGCPu)]
activity (cleaved junctions of 200) ([1]; CviJI*, 11 uncleaved, CviJI** 0 of 76 (Table 5)): 12

AGCT (double strand) [AGCT site in pUC19 (normal PuGCPy)]
activity (cleaved junctions of 200) ([1]; CviJI*, 0 uncleaved, CviJI** 25 of 76 (Table 5)): 35

CGCA (double strand) [CGCA site in pUC19 (R3 PyGCPu)]
activity (cleaved junctions of 200) ([1]; CviJI*, 12 uncleaved, CviJI** 0 of 76 (Table 5)): 0

CGCC (double strand) [CGCC site in pUC19 (relaxed R1 PyGCPy)]
activity (cleaved junctions of 200) ([1]; CviJI*, 4 uncleaved, CviJI** 0 of 76 (Table 5)): 11

CGCG (double strand) [CGCG site in pUC19 (R3 PyGCPu)]
activity (cleaved junctions of 200) ([1]; CviJI*, 27 uncleaved, CviJI** 0 of 76 (Table 5)): 0

CGCT (double strand) [CGCT site in pUC19 (relaxed R1 PyGCPy)]
activity (cleaved junctions of 200) ([1]; CviJI*, 7 uncleaved, CviJI** 2 of 76 (Table 5)): 17

GGCA (double strand) [GGCA site in pUC19 (relaxed R2 PuGCPu)]
activity (cleaved junctions of 200) [1, 4]: 11

GGCC (double strand) [GGCC site in pUC19 (normal PuGCPy)]
activity (cleaved junctions of 200) ([1]; CviJI*, 1 uncleaved, CviJI** 16 of 76 (Table 5)): 24

GGCG (double strand) [GGCG site in pUC19 (relaxed R2 PuGCPu)]
activity (cleaved junctions of 200) ([1]; CviJI*, 8 uncleaved, CviJI** 4 of 76 (Table 5)): 18

GGCT (double strand) [GGCT site in pUC19 (normal PuGCPy)]
activity (cleaved junctions of 200) ([1]; CviJI*, 0 uncleaved, CviJI** 12 of 76 (Table 5)): 13

TGCA (double strand) [TGCA site in pUC19 (R3 PyGCPu)]
activity (cleaved junctions of 200) ([1]; CviJI*, 19 uncleaved, CviJI** 0 of 76 (Table 5)): 0

TGCC (double strand) [TGCC site in pUC19 (relaxed R1 PyGCPy)]
activity (cleaved junctions of 200) ([1]; CviJI*, 10 uncleaved, printed TOCC in Table 2, CviJI** 2 of 76 (Table 5)): 13

TGCG (double strand) [TGCG site in pUC19 (R3 PyGCPu)]
activity (cleaved junctions of 200) [1, 4]: 0

TGCT (double strand) [TGCT site in pUC19 (relaxed R1 PyGCPy)]
activity (cleaved junctions of 200) [1, 3]: 10

plasmid p710/pBMC5 (G/A)GC(T/C/G) sites
activity (% resistance to HaeIII) [2]: 90
